According to paper PMC3074190 (Molecular carcinogenesis, 2010):

T1: GST-β-catenin-S37A (human, UniProt P35222 1-781, S37A)
T1 sequence (looked up): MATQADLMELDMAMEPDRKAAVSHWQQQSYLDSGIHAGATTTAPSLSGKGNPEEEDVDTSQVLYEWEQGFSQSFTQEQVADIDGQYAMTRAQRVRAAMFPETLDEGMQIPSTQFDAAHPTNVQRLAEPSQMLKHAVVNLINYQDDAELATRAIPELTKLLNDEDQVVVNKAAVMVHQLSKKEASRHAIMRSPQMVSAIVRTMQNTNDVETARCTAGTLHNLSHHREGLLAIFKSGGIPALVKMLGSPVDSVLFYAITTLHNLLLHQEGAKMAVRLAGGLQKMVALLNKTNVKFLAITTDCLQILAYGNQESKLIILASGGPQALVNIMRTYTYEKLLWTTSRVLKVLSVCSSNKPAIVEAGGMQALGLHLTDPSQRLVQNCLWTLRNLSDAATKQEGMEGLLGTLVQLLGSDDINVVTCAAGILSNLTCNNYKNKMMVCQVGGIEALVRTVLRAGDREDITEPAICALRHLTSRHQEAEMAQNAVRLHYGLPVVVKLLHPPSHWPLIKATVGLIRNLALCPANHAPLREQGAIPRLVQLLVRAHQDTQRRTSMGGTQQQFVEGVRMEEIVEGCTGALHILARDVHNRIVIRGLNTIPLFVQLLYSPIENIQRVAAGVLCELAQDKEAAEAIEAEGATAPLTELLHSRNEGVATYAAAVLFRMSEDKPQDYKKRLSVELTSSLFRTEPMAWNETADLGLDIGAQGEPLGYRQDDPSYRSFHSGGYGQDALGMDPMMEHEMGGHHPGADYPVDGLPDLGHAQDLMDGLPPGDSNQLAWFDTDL


Tests used:
GST-β-catenin-S37A = molecular target: T1, GST-β-catenin-S37A; assay: pull-down
[1] = molecular target: β-catenin bait (BD fusion) (human) (UniProt P35222); assay: two-hybrid

Binder | band intensity with GST-β-catenin, fold over GST-only control (GST-β-catenin-S37A) [fold] | fold increase of the two-hybrid signal with 1,25D over vehicle [1] [fold] | fold increase of the two-hybrid signal with LCA over vehicle [1] [fold]
VDR Δ1–88, N-terminally truncated VDR, 35S-methionine labelled (domain or fragment, human, UniProt P11473 89-427, looked up, 35S-methionine labelled) MMKEFILTDEEVQRKREMILKRKEEEALKDSLRPKLSEEQQRIIAILLDAHHKTYDPTYSDFCQFRPPVRVNDGGGSHPSRPNSRHTPSFSGDSSSSCSDHCITSSDMMDSSSFSNLDLSEEDSDDPSVTLELSQLSMLPHLADLVSYSIQKVIGFAKMIPGFRDLTSEDQIVLLKSSAIEVIMLRSNESFTMDDMSWTCGNQDYKYRVSDVTKAGHSLELIEPLIKFQVGLKKLNLHEEEHVLLMAICIVSPDRPGVQDAALIEAIQDRLSNTLQTYIRCRHPPPGSHLLYAKMIQKLADLRSLNEEHSKQYRCLSFQPECSMKLTPLVLEVFGNEIS | 7.1 |  | 
human vitamin D receptor, full-length wild type (F/M4 allele), 35S-methionine labelled (natural protein, UniProt P11473 4-427, looked up, 35S-methionine labelled) MAASTSLPDPGDFDRNVPRICGVCGDRATGFHFNAMTCEGCKGFFRRSMKRKALFTCPFNGDCRITKDNRRHCQACRLKRCVDIGMMKEFILTDEEVQRKREMILKRKEEEALKDSLRPKLSEEQQRIIAILLDAHHKTYDPTYSDFCQFRPPVRVNDGGGSHPSRPNSRHTPSFSGDSSSSCSDHCITSSDMMDSSSFSNLDLSEEDSDDPSVTLELSQLSMLPHLADLVSYSIQKVIGFAKMIPGFRDLTSEDQIVLLKSSAIEVIMLRSNESFTMDDMSWTCGNQDYKYRVSDVTKAGHSLELIEPLIKFQVGLKKLNLHEEEHVLLMAICIVSPDRPGVQDAALIEAIQDRLSNTLQTYIRCRHPPPGSHLLYAKMIQKLADLRSLNEEHSKQYRCLSFQPECSMKLTPLVLEVFGNEIS | 8.3 |  | 
VDR prey (AD fusion), wild type (natural protein) MEAMAASTSLPDPGDFDRNVPRICGVCGDRATGFHFNAMTCEGCKGFFRRSMKRKALFTCPFNGDCRITKDNRRHCQACRLKRCVDIGMMKEFILTDEEVQRKREMILKRKEEEALKDSLRPKLSEEQQRIIAILLDAHHKTYDPTYSDFCQFRPPVRVNDGGGSHPSRPNSRHTPSFSGDSSSSCSDHCITSSDMMDSSSFSNLDLSEEDSDDPSVTLELSQLSMLPHLADLVSYSIQKVIGFAKMIPGFRDLTSEDQIVLLKSSAIEVIMLRSNESFTMDDMSWTCGNQDYKYRVSDVTKAGHSLELIEPLIKFQVGLKKLNLHEEEHVLLMAICIVSPDRPGVQDAALIEAIQDRLSNTLQTYIRCRHPPPGSHLLYAKMIQKLADLRSLNEEHSKQYRCLSFQPECSMKLTPLVLEVFGNEIS |  | 12 | 8
